Data reported in US20240084003A1 (SIMCERE ZAIMING PHARMACEUTICAL, published 2024).

Assays:
[1] = biological target: T1, monkey CD22 on HEK293T-monkey CD22 cells (monkey); test: FACS, HEK293T-monkey CD22 cells, EC50 column
T1 construct: full-length entry expressed on stably transfected HEK293T cells
T1 chain: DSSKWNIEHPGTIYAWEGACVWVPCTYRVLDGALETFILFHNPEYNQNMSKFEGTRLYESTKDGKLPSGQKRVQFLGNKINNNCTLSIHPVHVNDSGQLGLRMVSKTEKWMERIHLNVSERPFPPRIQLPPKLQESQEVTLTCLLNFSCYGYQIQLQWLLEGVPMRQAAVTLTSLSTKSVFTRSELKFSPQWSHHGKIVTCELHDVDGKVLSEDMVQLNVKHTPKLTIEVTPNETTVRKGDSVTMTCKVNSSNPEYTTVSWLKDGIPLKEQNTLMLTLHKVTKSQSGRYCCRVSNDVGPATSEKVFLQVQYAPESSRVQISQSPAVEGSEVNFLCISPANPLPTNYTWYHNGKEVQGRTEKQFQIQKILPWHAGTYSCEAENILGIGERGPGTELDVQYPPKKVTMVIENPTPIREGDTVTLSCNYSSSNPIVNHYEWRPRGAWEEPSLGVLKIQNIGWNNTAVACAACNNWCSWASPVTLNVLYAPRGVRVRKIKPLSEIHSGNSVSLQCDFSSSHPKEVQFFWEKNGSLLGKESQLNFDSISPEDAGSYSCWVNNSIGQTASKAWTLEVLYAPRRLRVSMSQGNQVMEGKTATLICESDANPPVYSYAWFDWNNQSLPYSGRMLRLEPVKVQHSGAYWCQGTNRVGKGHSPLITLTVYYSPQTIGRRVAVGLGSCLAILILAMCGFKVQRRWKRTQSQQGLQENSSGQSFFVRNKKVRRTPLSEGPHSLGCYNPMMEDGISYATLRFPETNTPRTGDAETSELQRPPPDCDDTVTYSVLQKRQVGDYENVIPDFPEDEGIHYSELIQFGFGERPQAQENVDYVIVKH
Description: (§1) For suspension cell Raji, the medium supernatant was directly centrifuged and discarded, and the cell pellet was washed 2 times with PBS. After counting the cells in the previous step, the cell pellet was resuspended with [PBS+2% (w/w) BSA] blocking solution to 2×10⁶ cells/ml, and added to a 96-well FACS reaction plate at 50 μl/well, and then the chimeric antibody test sample was added at 50 μl/well, and incubated on ice for 2 hours. The mixture was centrifuged and washed 3 times with PBS buffer, Alexa Flour 488-labeled secondary antibody (purchased from Invitrogen, catalog number: A-11013) was added at 50 μl/well, and incubated on ice for 1 hour. The obtained mixture was centrifuged and washed 5 times with PBS, and FACS (FACS Canto™, purchased from BD Company) was used for detection and result analysis. Data analysis was performed by software (CellQuest) to obtain the mean fluorescence density (MFI)of the cells. And then software (GraphPad Prism8) was used for analysis, data fitting, and EC50 value calculation. […] The same method was used to detect the binding of the chimeric antibodies to endogenous CD22-negative cell MoLT4 cells (purchased from ATCC, CRL-1582) and CHO-K1 cells.
(§2) HEK293T-monkey CD22 cells were subjected to FACS detection and data analysis according to the method in Example 5.2.

[2] = biological target: T1, monkey CD22 on HEK293T-monkey CD22 cells; test: FACS, HEK293T-monkey CD22 cells
Description: as §1, §2

B1: F1.60.9 (antibody, human IgG1, kappa, V domains shown)
VH: QVQLKESGPGLVAPSQSLSITCTVSGLSLNNYGVSWVRQPPGKGLEWLGVIWGDGSTNYHSALISRLSISKDNSKSQVFLKLNSLHTDDTATYYCAINWGDYWGQGTTLIVSS
VL: DIKMTQSPSSMNASLGERVTITCKASQDINSYLSWFQQKPGKSPKILIYRANRLIDGVPSRFSGSGSGQDYSLTISSLEYEDMGIYYCLQYGVFPLTFGAGTKLELKR
notes: human-murine chimeric IgG1 kappa
binding result [1]: no binding

B2: F1.245.2 (antibody, human IgG1, kappa, V domains shown)
VH: EVQLQQSGAELVKPGASVKLSCTGSGFNIKDYYIHWVKQRTEQGLEWMGRIDPEDGETEYAPKFQDEATITSDTSSNTAYLQLSSLTYEDTAVYYCAREAAGYFYRGSSYGYFDVWGTGTTVTVSS
VL: DFQMTQTTSFLSASLGDRVTISCSASQDISNYLNWYQQKPDGTVKLLIYYTSSLHSGVPSRFSGSGSGTDYSLTISNLEPEDIATYYCQQYSMLPYTFGGGTKLEMER
notes: as for B1
binding result [1]: no binding

B3: F2.70.2 (antibody, human IgG1, lambda, V domains shown)
VH: EVQLVESGGGLVKPGGSLKLSCAASGFTFSDYGMNWFRQAPEKGLEWVAYISRGSHTIYYADTVKGRFTISRDNAKNTLFLQMTSLRSNDTAMYYCVRMAGYYAMDYWGQGTSVTVSS
VL: QLVLTQSSSASFSLGASAKLTCTLSSQHSSYIIEWYQQQPLKPPKYVMELKKDGSHSTGDGIPDRFSGSSSGADRYLSISNIQPEDEAIYICGVGDTIKEQFVYVFGGGTKVTVLG
notes: human-murine chimeric IgG1 lambda
Maximum mean fluorescence intensity [2]: 409 MFI | binding result [1]: no binding

B4: F2.180.16 (antibody, human IgG1, lambda, V domains shown)
VH: EVKLVESGGGLVLPGGSLKISCAASGFTFSDYYMYWIRQTPDKRLEWVAYISNTGYSTFYPDSVKGRFTVSRDNAKNTLYLQMSRLQSEDTAMYYCARHGILYAMDYWGQGTSVTVSS
VL: QPVLTQSSSASFSLGASAKLTCTLSSQYSTYTIGWYQQQPLKPPKYVMELKHDGSRHTGDGIPDRFSGSSSGADRYLSISNIQPEDEATYICGVGDTIKEQFMYVFGGGTKVTVLG
notes: as for B3
Maximum mean fluorescence intensity [2]: 69 MFI | binding result [1]: no binding

B5: F2.173.9 (antibody, human IgG1, lambda, V domains shown)
VH: EVQLVESGGDLVKPGESLKLSCEASGFTFSNYAMSWVRQTPDRRLEWVATISSIGSFTYYSDSVKGRFTISRDNVKSTLHLQMNNLKSGDTAIYFCARLGVYFDSWGQGTTLTVSS
VL: QLVLTQSSSASFSLGASAKLTCTLSSQHSTYTIEWYQQQPHKPPKFVMEIKKDGSHYTGDGIPDRFSGSSSGADRYLSISNIQPEDETIYICGVSDMIKDQFVYVFGGGTKVTVLG
notes: as for B3
EC50 [2]: 2.1 nM | Maximum mean fluorescence intensity [2]: 22700 MFI

B6: F2.104.10 (antibody, human IgG1, lambda, V domains shown)
VH: EVQLVESGGGFVKPGGSLKLSCAASGFTFSDYGMNWFRQAPEKGLEWVAYISRGSHTIYYADTVKGRFTISRDNAENTLFLQMTSLRSNDTAMYYCVRMAGYYAMDYWGQGTSLTVSS
VL: QLVLTQSSSASFSLGASAKLTCTLSSQHSSYIIEWYQQQPLKPPKYVMEVKKDGSHSTGDGIPDRFSGSSSGADRYLSISNIQSEDEAIYICGVGDTIKEQFVYVFGGGTKVTVLG
notes: as for B3
Maximum mean fluorescence intensity [2]: 251 MFI | binding result [1]: no binding

B7: HA22-hIgG1 (antibody, V domains shown)
VH: EVQLVESGGGLVKPGGSLKLSCAASGFAFSIYDMSWVRQTPEKCLEWVAYISSGGGTTYYPDTVKGRFTISRDNAKNTLYLQMSSLKSEDTAMYYCARHSGYGTHWGVLFAYWGQGTLVTVSA
VL: DIQMTQTTSSLSASLGDRVTISCRASQDISNYLNWYQQKPDGTVKLLIYYTSILHSGVPSRFSGSGSGTDYSLTISNLEQEDFATYFCQQGNTLPWTFGCGTKLEIKR
EC50 [2]: 1.59 nM | Maximum mean fluorescence intensity [2]: 31200 MFI

B8: F2.205.9 (antibody, human IgG1, lambda, V domains shown)
VH: QVTLKESGPGILQPSQTLSLTCSFSGFSLSTSGMGVGWIRQPSGKGLEWLAHIWWDDDEYYNPALKSRLTISKDTSKNQVFLKIANVDTADTATYYCARISIPYGYYDWFFDVWGTGTTVTVSA
VL: QAVVTQESALTTSPGETVTLTCRSSTGAVTTRNYANWVQEKPDHLFTGLIGGTNNRAPGVPARFSGSLIGDKAALTITGAQTEDEAIYFCALWYSNHFIFGSGTKVTVLG
notes: human-murine chimeric IgG1 lambda; VL name legible
EC50 [2]: 0.4 nM | Maximum mean fluorescence intensity [2]: 25400 MFI

B9: F2.151.13 (antibody, human IgG1, lambda, V domains shown)
VH: QVHLQQPGTELMKPGASVKLSCKATGYTFRDYWLEWVKQRPGHGLEWIGEILPGSGNAYYNEKFKGKATFTADTSSNTAYMQLSSLTTEDSAIYYCARVYSNWYFDAWGKGTTVTVSS
VL: QAVVTQESALTTSPGETVTLTCRSSTGAVTTSNYANWVQEKPDHLFTGLIGGTNNQAPGVPARFSGSLIGDKAALTISGAQTEDEAIYFCALWFSNHWVFGGGTKLTVLG
notes: as for B3
EC50 [2]: 1.26 nM | Maximum mean fluorescence intensity [2]: 30500 MFI

B10: F2.343.16 (antibody, human IgG1, lambda, V domains shown)
VH: QVQLKQSGPGLVQPSQSLSITCTVSGFSLTGYGVQWVRQSPGKGLEWLGVIWGGGGTDYNAAFISRLNIIKDNSKSQVFFKMNSLQADDTAIYYCARYSKYGHFDVWGTGTAVTVSS
VL: QAVVTQESALTTSPGETVTLTCRSSTGAVTTSNYANWVQEKPDHLFTGLIGGTYNRVPGVPARFSGSLIGDKAALTITGAQTEDEAIYFCALWYSNHFWVFGGGTKLTVLG
notes: as for B8
Maximum mean fluorescence intensity [2]: 83 MFI | binding result [1]: no binding

B11: F2.121.9 (antibody, human IgG1, lambda, V domains shown)
VH: EVQLVESGGGLVKPGGSLKLSCAASGFTFSDYVMSWIRQTPEKRLEWVATISDAGSYTFYPDNLKGRFTISRDNAKNNLYLQMNHLTSEDTAFYYCAIIYFGNYGGYWGQGTLVTVSV
VL: QAVVTQESALTTSPGGTVVLTCRSNTGAVTTSNYANWVQEKPDHLFTGLIGGTSNRAPGVPVRFSGSLIGDKAALTITGAQTEDDAMYFCALWYSTHWVFGGGTKLTVLG
notes: as for B3
EC50 [2]: 0.97 nM | Maximum mean fluorescence intensity [2]: 19900 MFI

B12: F1.257.3 (antibody, human IgG1, kappa, V domains shown)
VH: QVQLQQSGPELARPGASVKLSCKASGYTFTSYGISWVKQRTGQDLEWIGEIYPKLGTTYYNEKFKDKATLTTDRSSSTAYMALRSLTSEDSAVYFCACPHYYATRGGDYWGQGTTLTVSS
VL: EIVLTQSPATLSVTPGDSVTFSCRASQSISNHLHWYQQKSHESPRLLIRYASQSISGIPSRFSGSGSGTDFTLSLSSVETEDFGVYFCQQSHSWPYTFGGGTKLEIAR
notes: human-murine chimeric IgG1 kappa; VL name legible
binding result [1]: no binding

B13: F2.55.1 (antibody, human IgG1, lambda, V domains shown)
VH: QVTLKESGPGILQPSQTLSLTCSFSGFSLSTFPLGVGWIRQPSGKGLEWLAHVWWNDDDYYNPALKSRLTISKDTSNTRVFLSVASVDTAETATYYCARLNWDRWYFDVWGTGTTVTVSS
VL: QLVLTQSSSASFSLGASAKLTCTLSSQHSAYTVEWYQQQPLKPPKYVMELKKDGSHSTGDGIPDRFSGSSSGADRYLSISNIQPEDEAIYICGVGDTVKEQFVFGGGTKVTVLG
notes: as for B8
EC50 [2]: 34.7 nM | Maximum mean fluorescence intensity [2]: 5760 MFI
